protein,measurement,setting,value
human Sirt3 (protein) ISFSVGASSVVGSGGSSDKGKLSLQDVAELIRARACQRVVVMVGAGISTPSGIPDFRSPGSGLYSNLQQYDLPYPEAIFELPFFFHNPKPFFTLAKELYPGNYKPNVTHYFLRLLHDKGLLLRLYTQNIDGLERVSGIPASKLVEAHGTFASATCTVCQRPFPGEDIRADVMADRVPRCPVCTGVVKPDIVFFGEPLPQRFLLHVVDFPMADLLLILGTSLEVEPFASLTEAVRSSVPRLLINRDLVGPLAWHPRSRDVAQLGDVVHGVESLVELLGWTEEMRDLVQRETGKLDGPDK,Km for acetyl peptide,H3K9 acetyl peptide,50 µM
same,kcat,H3K9 acetyl peptide,0.012 s⁻¹
same,kcat/Km (s^-1M^-1),H3K9 acetyl peptide,240 s^-1M^-1
human Sirt2 (protein) MAEPDPSHPLETQAGKVQEAQDSDSDSEGGAAGGEADMDFLRNLFSQTLSLGSQKERLLDELTLEGVARYMQSERCRRVICLVGAGISTSAGIPDFRSPSTGLYDNLEKYHLPYPEAIFEISYFKKHPEPFFALAKELYPGQFKPTICHYFMRLLKDKGLLLRCYTQNIDTLERIAGLEQEDLVEAHGTFYTSHCVSASCRHEYPLSWMKEKIFSEVTPKCEDCQSLVKPDIVFFGESLPARFFSCMQSDFLKVDLLLVMGTSLQVQPFASLISKAPLSTPRLLINKEKAGQSDPFLGMIMGLGGGMDFDSKKAYRDVAWLGECDQGCLALAELLGWKKELEDLVRREHASIDAQSGAGVPNPSTSASPKKSPPPAKDEARTTEREKPQ,Km for acetyl peptide,H3K9 acetyl peptide,190 µM
same,kcat,H3K9 acetyl peptide,0.03 s⁻¹
same,kcat/Km (s^-1M^-1),H3K9 acetyl peptide,160 s^-1M^-1
human Sirt7 (protein) MAAGGLSRSERKAAERVRRLREEQQRERLRQVSRILRKAAAERSAEEGRLLAESADLVTELQGRSRRREGLKRRQEEVCDDPEELRGKVRELASAVRNAKYLVVYTGAGISTAASIPDYRGPNGVWTLLQKGRSVSAADLSEAEPTLTHMSITRLHEQKLVQHVVSQNCDGLHLRSGLPRTAISELHGNMYIEVCTSCVPNREYVRVFDVTERTALHRHQTGRTCHKCGTQLRDTIVHFGERGTLGQPLNWEAATEAASRADTILCLGSSLKVLKKYPRLWCMTKPPSRRPKLYIVNLQWTPKDDWAALKLHGKCDDVMRLLMAELGLEIPAYSRWQDPIFSLATPLRAGEEGSHSRKSLCRSREEAPPGDRGAPLSSAPILGGWFGRGCTKRTKRKKVT,hydrolysis of acyl peptide (LC-MS),H3K9 acetyl peptide,"Sirt6 and Sirt7 have no detectable activity on acetyl, malonyl, or succinyl peptides under the conditions tested"
same,hydrolysis of acyl peptide (LC-MS),H3K9 succinyl peptide,"Sirt6 and Sirt7 have no detectable activity on acetyl, malonyl, or succinyl peptides under the conditions tested"
same,hydrolysis of acyl peptide (LC-MS),H3K9 malonyl peptide,"Sirt6 and Sirt7 have no detectable activity on acetyl, malonyl, or succinyl peptides under the conditions tested"
human Sirt1 (protein) MADEAALALQPGGSPSAAGADREAASSPAGEPLRKRPRRDGPGLERSPGEPGGAAPEREVPAAARGCPGAAAAALWREAEAEAAAAGGEQEAQATAAAGEGDNGPGLQGPSREPPLADNLYDEDDDDEGEEEEEAAAAAIGYRDNLLFGDEIITNGFHSCESDEEDRASHASSSDWTPRPRIGPYTFVQQHLMIGTDPRTILKDLLPETIPPPELDDMTLWQIVINILSEPPKRKKRKDINTIEDAVKLLQECKKIIVLTGAGVSVSCGIPDFRSRDGIYARLAVDFPDLPDPQAMFDIEYFRKDPRPFFKFAKEIYPGQFQPSLCHKFIALSDKEGKLLRNYTQNIDTLEQVAGIQRIIQCHGSFATASCLICKYKVDCEAVRGDIFNQVVPRCPRCPADEPLAIMKPEIVFFGENLPEQFHRAMKYDKDEVDLLIVIGSSLKVRPVALIPSSIPHEVPQILINREPLPHLHFDVELLGDCDVIINELCHRLGGEYAKLCCNPVKLSEITEKPPRTQKELAYLSELPPTPLHVSEDSSSPERTSPPDSSVIVTLLDQAAKSNDDLDVSESKGCMEEKPQEVQTSRNVESIAEQMENPDLKNVGSSTGEKNERTSVAGTVRKCWPNRVAKEQISRRLDGNQYLFLPPNRYIFHGAEVYSDSEDDVLSSSSCGSNSDSGTCQSPSLEEPMEDESEIEEFYNGLEDEPDVPERAGGAGFGTDGDDQEAINEAISVKQEVTDMNYPSNKS,Km for acetyl peptide,H3K9 acetyl peptide,38 µM
same,hydrolysis of acyl peptide (LC-MS),H3K9 acetyl peptide,Sirt1 catalyzed the hydrolysis of the acetyl peptide
same,kcat,H3K9 acetyl peptide,0.039 s⁻¹
same,kcat/Km (s^-1M^-1),H3K9 acetyl peptide,1000 s^-1M^-1
same,hydrolysis of acyl peptide (LC-MS),H3K9 succinyl peptide,but not the malonyl and succinyl peptides
same,hydrolysis of acyl peptide (LC-MS),H3K9 malonyl peptide,but not the malonyl and succinyl peptides
